Consider one molecule from patent US20120171210A1, “METHODS AND COMPOSITIONS FOR INHIBITING C-MET DIMERIZATION AND ACTIVATION” (Genentech, Inc., priority 2003, published 2012).

Assay [1] deals with Met (Homo sapiens, UniProt P08581). Nature of the assay: Met tyrosine phosphorylation in A549 cells (immunoprecipitation / phosphotyrosine immunoblot). The class given is cell-based. Further details: endogenous in cells; host or cells: A549 (lung carcinoma). How it is done: (§1) Cell lines were obtained from American Type Culture Collection (ATCC). 293 cells were maintained in DMEM supplemented with 10% FBS (Sigma), penicillin/streptomycin (GIBCO), and glutamine A549, H441, and MDA-MB-435 cells were maintained in 50:50 DMEM/F12 (Cellgro) supplemented with 10% FBS, penicillin/streptomycin, and glutamine Cells were transfected with 1-12 μg of the indicated constructs using Lipofectamine 2000 (Invitrogen) according to manufacturer's instructions. Twenty-four hrs later cells were harvested with 1% NP40 lysis buffer containing Complete protease inhibitor cocktail tablet and phosphatase inhibitor cocktail 2 (Roche and Sigma, respectively). For Met tyrosine phosphorylation and MAPK phosphorylation studies, cells were serum-starved for 2 hr with 0.5% BSA. Cells treated with 10 μg/ml anti-Met 5D5-Fab or rSema were incubated for an additional 1 hr prior to lysis. Cell debris was centrifuged and the supernatant was precleared with Protein A Sepharose (Sigma) or Protein G-Plus agarose beads (Santa Cruz) for 1 hr. 500 μg of lysates was then immunoprecipitated with 10 μg 5D5 antibody (Genentech) or 35 ul of Met (C-28) agarose conjugate (Santa Cruz) overnight at 4° C. with rotation. For HGF binding studies, 500 μg of lysates were incubated with 5 μg scHGF or HGF followed by immunoprecipitation with 1 μg of V5 antibody. Protein A or G beads were added for an additional 2 hrs before immunoprecipitates were washed 3 times with 1% NP40 lysis buffer. After addition of 2× sample buffer with 10 mM DTT, the samples were run on 4-12% Tris-glycine gels (Invitrogen). […] Proteins were detected by enhanced chemiluminescence (ECL-Plus, Amersham).
(§2) Human tumor cells were treated with increasing concentrations of rSema and analyzed for Met tyrosine phosphorylation and downstream activation of mitogen activated protein kinase (MAPK) upon HGF stimulation. […]
In general terms: Immunoblotting shows a protein as a band on a membrane.

The subject of assay [2] is H441 cells. Nature of the assay: Scrape assay (Met mediated cell motility). The assay is classed as cell-based, Human. How it is done: H441 cells were seeded at a density of 4.5×10^4 cells/well in a 96-well plate with 10% FBS in 50:50 DMEM/F12. The next day, a single scrape was made in the confluent monolayer in each well as described previously (Lorenzato et al., 2002). The cells were then incubated with media containing 0.5% BSA and treated with mock, 10 μg/ml 5D5, 10 μg/ml Sema, or 100 ng/ml HGF. The scrape was monitored and photographed daily. Representative results are shown for Day 2.
H441 cells were used in a scrape assay as a measure of Met mediated cell motility (Lorenzato et al., 2002). H441 cells grown to high density were scraped in each well on day 0 and maintained in serum-free media containing 0.5% BSA for the duration of the experiment (FIG. 6). Cells were either treated with 10 μg/ml rSema or 5D5 or 100 ng/ml HGF as a positive control or mock treated. […] These observations were consistent in four separate experiments.
To examine the effect of rSema on cell motility in the presence of ligand, cells were treated with 0, 0.1, 0.5, or 5 μg/ml rSema plus 20 ng/ml HGF. Cells treated with HGF alone closed the gap completely by Day 1.

Assay [3] has as its system MAPK. Description: MAPK phosphorylation in H441 cells (immunoblot). The assay is classed as cell-based, Human. How it is done:
as §1, with “hr.” for “hr. 500 μg of lysates was then immunoprecipitated with 10 μg 5D5 antibody (Genentech) or 35 ul of Met (C-28) agarose conjugate (Santa Cruz) overnight at 4° C. with rotation. For HGF binding studies, 500 μg of lysates were incubated with 5 μg scHGF or HGF followed by immunoprecipitation with 1 μg of V5 antibody. Protein A or G beads were added for an additional 2 hrs before immunoprecipitates were washed 3 times with 1% NP40 lysis buffer. After addition of 2× sample buffer with 10 mM DTT, the samples were run on 4-12% Tris-glycine gels (Invitrogen).”
as §2

For assay [4], the system named is MDA-MB-435 cells. Description: Transwell migration assay. The assay is classed as cell-based, Human. The following applies: MDA-MB-435, 10 μg/ml in upper chamber, absence of HGF, vs mock. How it is done: Transwell migration assays were carried out as previously described with modifications (Coltella et al., 2003). MDA-MB-435 cells were seeded at 1.2×10^5 cells in media containing 0.5% BSA to the upper chamber of each transwell (Costar) that had been previously coated with 10 ug/ml collagen type IV (Sigma). Mock, 10 μg/ml anti-Met 5D5-Fab, or 10 μg/ml Sema was added to the upper chamber. As a positive control, 100 ng/ml HGF was also added to the lower chamber of mock-treated wells. The next day, the cells were fixed with 4% paraformaldehyde and stained with 0.5% crystal violet. Cells that had migrated to the lower chamber were solubilized with 10% acetic acid and the absorbance was measured at 560 nm in a microplate reader.
A transwell assay with MDA-MB-435 cells was used to measure Met driven cell migration (Coltella et al., 2003). […] The data correlated with the scrape assay results in the H441 cell line. Activation of Akt was also examined in H441 and MDA-MB-435 cells used in the cell motility and migration assays. […] The data correlated with observations that rSema can inhibit cell motility in the presence of ligand. […]

The test system of assay [5] is Akt. Description: Akt phosphorylation in MDA-MB-435 cells. The assay is classed as cell-based, Human. The following applies: MDA-MB-435, increasing concentrations of rSema in the presence of HGF; data not shown. The text has this:
(§3) A transwell assay with MDA-MB-435 cells was used to measure Met driven cell migration (Coltella et al., 2003). […] The data correlated with the scrape assay results in the H441 cell line. Activation of Akt was also examined in H441 and MDA-MB-435 cells used in the cell motility and migration assays. […] The data correlated with observations that rSema can inhibit cell motility in the presence of ligand. Taken together, these observations supports the conclusion that a Sema domain antagonist, such as a recombinant polypeptide comprising a Sema sequence, is capable of not only inhibiting Met activation, but also blocking downstream effects of cell motility and migration in both ligand dependent and independent contexts.

The subject of assay [6] is Akt. Description: Akt phosphorylation in H441 cells. To be noted: H441, increasing concentrations of rSema in the presence of HGF; data not shown. The assay is classed as cell-based, Human.
Excerpt: as §3

Assay [7] deals with MAPK. Description: MAPK phosphorylation in A549 cells (immunoblot). The assay is classed as cell-based, Human. How it is done: as §1, §2
For assay [8], the system named is MAPK. Description: MAPK phosphorylation in MDA-MB-435 cells (immunoblot). The assay is classed as cell-based, Human. How it is done: as §1, with “hr.” for “hr. 500 μg of lysates was then immunoprecipitated with 10 μg 5D5 antibody (Genentech) or 35 ul of Met (C-28) agarose conjugate (Santa Cruz) overnight at 4° C. with rotation. For HGF binding studies, 500 μg of lysates were incubated with 5 μg scHGF or HGF followed by immunoprecipitation with 1 μg of V5 antibody. Protein A or G beads were added for an additional 2 hrs before immunoprecipitates were washed 3 times with 1% NP40 lysis buffer. After addition of 2× sample buffer with 10 mM DTT, the samples were run on 4-12% Tris-glycine gels (Invitrogen).”
as §2

[9] abbreviates: A549, serum-free, 10 μg/ml, absence of HGF, vs mock.

Sequence of Met (P08581 308-1390, one chain of several): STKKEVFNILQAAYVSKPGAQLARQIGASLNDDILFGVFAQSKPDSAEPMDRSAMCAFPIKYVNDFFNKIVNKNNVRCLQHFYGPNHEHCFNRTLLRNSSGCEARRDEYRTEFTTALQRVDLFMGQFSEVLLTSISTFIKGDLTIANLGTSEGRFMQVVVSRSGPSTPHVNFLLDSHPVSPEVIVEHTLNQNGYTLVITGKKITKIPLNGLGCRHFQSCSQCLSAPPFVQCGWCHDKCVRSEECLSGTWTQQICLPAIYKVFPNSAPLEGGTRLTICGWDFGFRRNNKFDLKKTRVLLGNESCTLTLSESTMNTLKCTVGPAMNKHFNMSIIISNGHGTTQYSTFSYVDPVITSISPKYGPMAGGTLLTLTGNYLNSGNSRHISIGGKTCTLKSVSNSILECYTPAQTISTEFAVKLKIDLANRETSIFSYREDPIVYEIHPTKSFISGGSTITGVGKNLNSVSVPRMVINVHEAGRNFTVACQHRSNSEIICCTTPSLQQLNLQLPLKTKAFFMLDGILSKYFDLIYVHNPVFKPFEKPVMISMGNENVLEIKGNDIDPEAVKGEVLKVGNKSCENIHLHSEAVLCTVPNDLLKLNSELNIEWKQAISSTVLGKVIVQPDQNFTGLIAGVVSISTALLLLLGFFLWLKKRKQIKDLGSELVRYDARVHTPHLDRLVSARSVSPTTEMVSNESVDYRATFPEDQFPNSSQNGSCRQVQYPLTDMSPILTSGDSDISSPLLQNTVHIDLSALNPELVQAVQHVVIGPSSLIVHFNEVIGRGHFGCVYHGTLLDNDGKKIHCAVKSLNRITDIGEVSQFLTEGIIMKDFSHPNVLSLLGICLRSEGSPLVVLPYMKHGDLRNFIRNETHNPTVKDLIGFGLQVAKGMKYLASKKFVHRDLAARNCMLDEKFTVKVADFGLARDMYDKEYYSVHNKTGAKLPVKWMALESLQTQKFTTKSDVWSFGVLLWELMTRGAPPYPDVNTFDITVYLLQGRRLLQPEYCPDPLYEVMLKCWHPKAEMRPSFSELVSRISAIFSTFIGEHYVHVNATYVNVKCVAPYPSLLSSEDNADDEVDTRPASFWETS

B1: rSema: recombinant Sema (rSema) protein, which included the Sema and PSI domains of the Met receptor (residues 25-567, 8×His tag) (protein)
chain: ECKEALAKSEMNVNMKYQLPNFTAETPIQNVILHEHHIFLGATNYIYVLNEEDLQKVAEYKTGPVLEHPDCFPCQDCSSKANLSGGVWKDNINMALVVDTYYDDQLISCGSVNRGTCQRHVFPHNHTADIQSEVHCIFSPQIEEPSQCPDCVVSALGAKVLSSVKDRFINFFVGNTINSSYFPDHPLHSISVRRLKETKDGFMFLTDQSYIDVLPEFRDSYPIKYVHAFESNNFIYFLTVQRETLDAQTFHTRIIRFCSINSGLHSYMEMPLECILTEKRKKRSTKKEVFNILQAAYVSKPGAQLARQIGASLNDDILFGVFAQSKPDSAEPMDRSAMCAFPIKYVNDFFNKIVNKNNVRCLQHFYGPNHEHCFNRTLLRNSSGCEARRDEYRTEFTTALQRVDLFMGQFSEVLLTSISTFIKGDLTIANLGTSEGRFMQVVVSRSGPSTPHVNFLLDSHPVSPEVIVEHTLNQNGYTLVITGKKITKIPLNGLGCRHFQSCSQCLSAPPFVQCGWCHDKCVRSEECLSGTWTQQICLPAIYKHHHHHHHH
For the molecule B1, in assay [1] (A549, serum starved, 0-100 μg/ml rSema with 10 ng/ml HGF, 10 min), the Met phosphorylation entry is recorded as “decrease in Met phosphorylation”. Moreover, the “ligand independent Met phosphorylation” value in assay [1] (setting [9]) is given as “inhibition”. The “gap closure in scrape assay in the presence of ligand” value in assay [2] (0, 0.1, 0.5 or 5 μg/ml rSema plus 20 ng/ml HGF, data not shown) was “retained the gap in a dose dependent manner”. Further, the “gap closure in scrape assay” value in assay [2] (H441, 10 μg/ml, serum-free, absence of HGF, Day 2, mock gap closed completely) is listed as “a gap remained”. For the same molecule, the phospho-MAPK result in assay [3] (H441, 0-100 μg/ml rSema plus 5 ng/ml HGF, 5 min) is listed as “dose dependent decrease in phospho-MAPK”; in assay [8] (MDA-MB-435, 0-100 μg/ml rSema plus 10 ng/ml HGF, 5 min), “dose dependent decrease in phospho-MAPK”. The MAPK phosphorylation result is recorded as “decrease in MAPK phosphorylation” in assay [3] (H441, 10 μg/ml, absence of HGF) and “decrease in MAPK phosphorylation” in assay [8] (MDA-MB-435, 10 μg/ml, absence of HGF). Also, the “cell migration (absorbance at 560 nm of migrated cells)” value in assay [4] was “consistently decreased”. Besides, the Akt phosphorylation result in assay [5] and in assay [6] was “dose dependent decrease in Akt phosphorylation” each time. The “phosphorylation of MAPK” value in assay [7] (A549, increasing concentrations of rSema in the presence of HGF (10 ng/ml)) is on record as “phosphorylation of MAPK decreased”. Further, in assay [7] (setting [9]), the phospho-MAPK levels entry is “inhibition”.
